According to patent publication US20020061546:

Assays:
[1] = tested on: wild type Aequorea green fluorescent protein
[2] = tested on: GFP N-terminal phosphorylation mutant 1MRKGSLLF; details: scale: relative to the endogenous site HKFSV of Aequorea GFP
[3] = tested on: GFP N-terminal phosphorylation mutant 1MSRRDSCF; details: scale: relative to the endogenous site HKFSV of Aequorea GFP
[4] = tested on: GFP phosphorylation mutant 155KRKSGI; details: scale: relative to the endogenous site HKFSV of Aequorea GFP
[5] = tested on: GFP phosphorylation mutant 68RRFSA; details: scale: relative to the endogenous site HKFSV of Aequorea GFP
[6] = tested on: GFP N-terminal phosphorylation mutant 1MRRDSCLF; details: scale: relative to the endogenous site HKFSV of Aequorea GFP
[7] = tested on: GFP phosphorylation mutant 25RRFSV; details: scale: relative to the endogenous site HKFSV of Aequorea GFP
[8] = tested on: GFP N-terminal phosphorylation mutant 1MRRESLLF; details: scale: relative to the endogenous site HKFSV of Aequorea GFP
[9] = tested on: GFP phosphorylation mutant 214KRDSM
[10] = tested on: GFP phosphorylation mutant 172RRGSV; details: scale: relative to the endogenous site HKFSV of Aequorea GFP
[11] = tested on: GFP N-terminal phosphorylation mutant 1MRKGSCLF; details: scale: relative to the endogenous site HKFSV of Aequorea GFP
[12] = tested on: GFP N-terminal phosphorylation mutant 1MSKRRDSL; details: scale: relative to the endogenous site HKFSV of Aequorea GFP
[13] = scale: relative to the endogenous site HKFSV of Aequorea GFP

protein kinase A catalytic subunit
phosphorylation in vitro [1]: can be phosphorylated by protein kinase A in vitro with relatively slow kinetics
Relative rates of phosphorylation [1, 13]: 1
Relative rates of phosphorylation [2]: 1.6
Relative rates of phosphorylation [3]: 2.1
Relative rates of phosphorylation [4]: 2.5
Relative rates of phosphorylation [5]: 0.6
Relative rates of phosphorylation [6]: 3.7
Relative rates of phosphorylation [7]: 1.75
Relative rates of phosphorylation [8]: 3
kinetics of phosphorylation using gamma-32P-labeled ATP [9]: the site is poorly phosphorylated by protein kinase A
Relative rates of phosphorylation [9, 13]: 1.88
Relative rates of phosphorylation [10]: 1.57
Relative rates of phosphorylation [11]: 5.1
Relative rates of phosphorylation [12]: 5.5
